Measurements: patent US20150064134A1

Key:
Experiment in all cases: cell-based or functional assay
ALK4(h) (human) = molecular target: T1, ALK4(h) (human) (UniProt P36896)
T1 sequence (looked up): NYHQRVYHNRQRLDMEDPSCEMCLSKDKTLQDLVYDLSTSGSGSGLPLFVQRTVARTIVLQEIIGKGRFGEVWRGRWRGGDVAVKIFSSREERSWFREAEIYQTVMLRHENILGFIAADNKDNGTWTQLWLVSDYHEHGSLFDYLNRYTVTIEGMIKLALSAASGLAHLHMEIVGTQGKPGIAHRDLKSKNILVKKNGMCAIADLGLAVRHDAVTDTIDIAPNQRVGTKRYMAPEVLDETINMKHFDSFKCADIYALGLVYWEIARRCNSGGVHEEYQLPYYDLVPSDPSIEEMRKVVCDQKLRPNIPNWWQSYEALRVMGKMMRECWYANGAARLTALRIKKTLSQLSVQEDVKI

CDK6/cyclinD3(h) (human) = CDK6/cyclinD3(h) (human) (UniProt Q00534)
IRR(h) (human) = IRR(h) (human) (UniProt P14616)
MAPK2(h) (human) = MAPK2(h) (human) (UniProt P28482)
MST1(h) (human) = molecular target: T2, MST1(h) (human) (UniProt Q13043)
T2 sequence (looked up): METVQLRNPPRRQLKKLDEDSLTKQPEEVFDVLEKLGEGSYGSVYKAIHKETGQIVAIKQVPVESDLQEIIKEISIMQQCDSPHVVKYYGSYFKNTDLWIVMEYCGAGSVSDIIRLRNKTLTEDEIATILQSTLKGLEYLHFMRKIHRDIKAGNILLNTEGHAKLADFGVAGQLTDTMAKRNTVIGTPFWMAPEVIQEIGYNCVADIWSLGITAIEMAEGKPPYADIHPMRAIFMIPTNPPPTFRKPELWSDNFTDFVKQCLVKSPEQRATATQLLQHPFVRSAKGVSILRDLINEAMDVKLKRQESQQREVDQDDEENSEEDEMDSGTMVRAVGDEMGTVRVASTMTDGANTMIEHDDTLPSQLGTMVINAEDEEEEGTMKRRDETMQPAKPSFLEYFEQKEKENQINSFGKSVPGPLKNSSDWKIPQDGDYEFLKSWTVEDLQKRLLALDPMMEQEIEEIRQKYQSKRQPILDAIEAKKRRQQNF

Met(h) (human) = Met(h) (human) (UniProt P08581)
NLK(h) (human) = molecular target: T3, NLK(h) (human) (UniProt Q9UBE8)
T3 sequence (looked up): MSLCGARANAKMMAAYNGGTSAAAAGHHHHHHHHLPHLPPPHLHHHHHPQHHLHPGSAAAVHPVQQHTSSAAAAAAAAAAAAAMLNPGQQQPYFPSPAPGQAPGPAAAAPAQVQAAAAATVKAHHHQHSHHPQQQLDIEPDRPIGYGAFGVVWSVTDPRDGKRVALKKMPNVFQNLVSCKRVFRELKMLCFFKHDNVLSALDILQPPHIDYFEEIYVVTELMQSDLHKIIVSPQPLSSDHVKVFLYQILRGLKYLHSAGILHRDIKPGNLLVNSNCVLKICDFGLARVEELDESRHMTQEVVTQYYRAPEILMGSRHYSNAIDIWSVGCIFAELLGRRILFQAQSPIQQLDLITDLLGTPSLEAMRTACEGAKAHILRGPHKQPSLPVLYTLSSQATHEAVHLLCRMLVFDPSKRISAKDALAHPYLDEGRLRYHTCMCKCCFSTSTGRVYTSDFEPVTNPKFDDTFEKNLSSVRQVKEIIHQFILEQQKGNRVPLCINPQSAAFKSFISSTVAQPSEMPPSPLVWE

PKCβII(h) (human) = PKCβII(h) (human) (UniProt P05771)
PTK5(h) (human) = PTK5(h) (human) (UniProt P42685)
PhKγ2(h) (human) = molecular target: T4, PhKγ2(h) (human) (UniProt P15735)
T4 sequence (looked up): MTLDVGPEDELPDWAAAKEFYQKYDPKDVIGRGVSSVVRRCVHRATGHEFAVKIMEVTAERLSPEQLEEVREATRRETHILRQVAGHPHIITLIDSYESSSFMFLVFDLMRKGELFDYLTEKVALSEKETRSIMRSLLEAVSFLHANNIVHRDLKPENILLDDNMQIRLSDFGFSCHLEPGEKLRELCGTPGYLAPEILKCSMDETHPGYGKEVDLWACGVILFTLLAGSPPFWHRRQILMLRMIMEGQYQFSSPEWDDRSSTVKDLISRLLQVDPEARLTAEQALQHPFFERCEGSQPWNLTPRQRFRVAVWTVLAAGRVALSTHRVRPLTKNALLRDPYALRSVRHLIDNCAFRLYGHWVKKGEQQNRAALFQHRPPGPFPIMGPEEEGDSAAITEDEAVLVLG

Pyk2(h) (human) = Pyk2(h) (human) (UniProt Q14289)
Rsk3(h) (human) = Rsk3(h) (human) (UniProt Q15349)
WNK3(h) (human) = WNK3(h) (human) (UniProt Q9BYP7)
eEF-2K(h) (human) = molecular target: T5, eEF-2K(h) (human) (UniProt O00418)
T5 sequence (looked up): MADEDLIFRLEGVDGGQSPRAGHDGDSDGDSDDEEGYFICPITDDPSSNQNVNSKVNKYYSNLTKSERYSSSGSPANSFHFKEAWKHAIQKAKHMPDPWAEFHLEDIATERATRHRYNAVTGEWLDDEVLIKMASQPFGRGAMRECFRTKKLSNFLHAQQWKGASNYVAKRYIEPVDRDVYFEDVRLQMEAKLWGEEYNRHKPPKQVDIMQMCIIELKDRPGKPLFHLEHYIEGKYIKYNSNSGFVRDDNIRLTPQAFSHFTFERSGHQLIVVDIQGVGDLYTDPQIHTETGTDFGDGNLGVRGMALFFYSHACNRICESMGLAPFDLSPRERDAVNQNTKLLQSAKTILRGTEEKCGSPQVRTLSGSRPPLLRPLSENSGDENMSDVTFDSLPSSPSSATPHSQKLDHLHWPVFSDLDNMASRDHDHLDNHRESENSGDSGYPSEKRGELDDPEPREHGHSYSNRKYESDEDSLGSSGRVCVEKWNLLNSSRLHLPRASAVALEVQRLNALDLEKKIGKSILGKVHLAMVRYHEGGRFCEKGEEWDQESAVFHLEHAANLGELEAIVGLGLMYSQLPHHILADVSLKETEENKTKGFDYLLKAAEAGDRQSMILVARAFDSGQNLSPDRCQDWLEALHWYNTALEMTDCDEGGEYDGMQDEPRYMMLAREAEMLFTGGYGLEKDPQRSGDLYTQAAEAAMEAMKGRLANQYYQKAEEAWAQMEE

Chain of IRR(h) (human) (P14616 944-1297 limits assumed): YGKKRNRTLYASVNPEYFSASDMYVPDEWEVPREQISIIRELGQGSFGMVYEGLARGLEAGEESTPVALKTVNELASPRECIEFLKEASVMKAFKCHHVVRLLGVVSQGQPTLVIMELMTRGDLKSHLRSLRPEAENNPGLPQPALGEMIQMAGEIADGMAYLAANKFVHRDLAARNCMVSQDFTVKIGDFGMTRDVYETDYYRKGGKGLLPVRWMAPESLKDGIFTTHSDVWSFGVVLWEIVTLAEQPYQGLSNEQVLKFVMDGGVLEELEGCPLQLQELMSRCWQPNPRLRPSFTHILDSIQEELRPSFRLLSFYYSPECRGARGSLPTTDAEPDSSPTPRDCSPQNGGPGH
Chain of MAPK2(h) (human) (P28482 whole entry): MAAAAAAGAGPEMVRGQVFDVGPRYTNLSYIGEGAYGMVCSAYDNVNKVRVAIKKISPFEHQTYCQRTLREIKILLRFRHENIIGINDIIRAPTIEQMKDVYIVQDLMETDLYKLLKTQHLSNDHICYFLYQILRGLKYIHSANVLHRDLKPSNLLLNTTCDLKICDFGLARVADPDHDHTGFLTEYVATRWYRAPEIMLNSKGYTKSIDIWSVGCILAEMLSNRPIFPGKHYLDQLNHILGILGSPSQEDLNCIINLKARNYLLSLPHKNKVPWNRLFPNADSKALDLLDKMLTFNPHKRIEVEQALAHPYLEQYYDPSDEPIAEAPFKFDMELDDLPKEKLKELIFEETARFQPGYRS
Chain of Rsk3(h) (human) (Q15349 whole entry): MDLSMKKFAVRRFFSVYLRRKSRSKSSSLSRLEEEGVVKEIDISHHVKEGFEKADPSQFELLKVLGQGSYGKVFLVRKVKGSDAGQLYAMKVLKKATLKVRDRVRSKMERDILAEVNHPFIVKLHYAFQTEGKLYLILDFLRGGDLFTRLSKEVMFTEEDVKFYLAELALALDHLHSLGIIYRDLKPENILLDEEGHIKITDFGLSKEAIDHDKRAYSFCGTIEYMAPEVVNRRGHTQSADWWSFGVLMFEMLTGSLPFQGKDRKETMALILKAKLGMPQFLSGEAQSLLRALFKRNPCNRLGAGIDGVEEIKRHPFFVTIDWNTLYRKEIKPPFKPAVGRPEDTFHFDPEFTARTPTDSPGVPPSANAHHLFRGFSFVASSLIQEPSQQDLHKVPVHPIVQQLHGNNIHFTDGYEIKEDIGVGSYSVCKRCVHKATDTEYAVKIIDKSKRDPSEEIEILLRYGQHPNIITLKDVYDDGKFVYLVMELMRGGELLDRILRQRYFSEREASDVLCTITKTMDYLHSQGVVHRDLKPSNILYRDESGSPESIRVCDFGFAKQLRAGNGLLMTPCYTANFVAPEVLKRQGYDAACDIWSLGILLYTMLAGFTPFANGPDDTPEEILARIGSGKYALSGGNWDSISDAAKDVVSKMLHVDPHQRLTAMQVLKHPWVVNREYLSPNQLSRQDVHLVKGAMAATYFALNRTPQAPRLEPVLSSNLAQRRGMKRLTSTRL
Chain of Met(h) (human) (P08581 956-1390 limits assumed): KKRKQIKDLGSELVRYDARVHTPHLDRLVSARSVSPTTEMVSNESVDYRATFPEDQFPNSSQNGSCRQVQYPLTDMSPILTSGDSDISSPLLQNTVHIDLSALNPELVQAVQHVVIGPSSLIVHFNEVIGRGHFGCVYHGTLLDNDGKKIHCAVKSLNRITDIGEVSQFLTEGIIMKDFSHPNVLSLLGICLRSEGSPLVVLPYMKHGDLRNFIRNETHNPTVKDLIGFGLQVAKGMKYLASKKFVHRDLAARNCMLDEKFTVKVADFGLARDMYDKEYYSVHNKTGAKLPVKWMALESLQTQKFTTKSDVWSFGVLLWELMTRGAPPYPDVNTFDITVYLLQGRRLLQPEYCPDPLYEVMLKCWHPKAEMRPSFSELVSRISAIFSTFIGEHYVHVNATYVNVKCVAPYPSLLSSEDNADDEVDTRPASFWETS
Chain of PTK5(h) (human) (P42685 whole entry): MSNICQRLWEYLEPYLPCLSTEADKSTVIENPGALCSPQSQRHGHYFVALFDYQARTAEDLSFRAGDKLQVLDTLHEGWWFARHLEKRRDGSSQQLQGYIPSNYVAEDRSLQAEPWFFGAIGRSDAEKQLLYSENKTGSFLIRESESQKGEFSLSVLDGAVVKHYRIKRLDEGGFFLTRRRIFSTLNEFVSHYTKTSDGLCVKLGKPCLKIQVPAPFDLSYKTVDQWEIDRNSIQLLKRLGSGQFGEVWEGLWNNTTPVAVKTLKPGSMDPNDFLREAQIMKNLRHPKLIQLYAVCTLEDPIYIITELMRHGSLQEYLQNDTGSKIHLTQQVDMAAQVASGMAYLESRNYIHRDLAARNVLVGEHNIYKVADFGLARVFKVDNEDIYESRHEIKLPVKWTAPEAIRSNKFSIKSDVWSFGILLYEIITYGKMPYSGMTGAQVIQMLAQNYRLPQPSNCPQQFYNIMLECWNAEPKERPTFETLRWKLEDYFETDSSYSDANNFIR
Chain of CDK6/cyclinD3(h) (human) (Q00534 whole entry, chain 1 of 2): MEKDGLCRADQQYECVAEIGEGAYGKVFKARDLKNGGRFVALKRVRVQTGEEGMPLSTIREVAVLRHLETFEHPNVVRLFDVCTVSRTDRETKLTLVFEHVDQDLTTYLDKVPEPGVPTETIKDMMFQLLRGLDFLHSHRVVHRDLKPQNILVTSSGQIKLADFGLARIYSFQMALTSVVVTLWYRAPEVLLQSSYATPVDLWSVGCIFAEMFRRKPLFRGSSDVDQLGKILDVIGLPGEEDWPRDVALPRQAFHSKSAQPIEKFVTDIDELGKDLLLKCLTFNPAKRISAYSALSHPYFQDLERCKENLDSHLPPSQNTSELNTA
Chain of CDK6/cyclinD3(h) (human) (P30281 whole entry, chain 2 of 2, further chain): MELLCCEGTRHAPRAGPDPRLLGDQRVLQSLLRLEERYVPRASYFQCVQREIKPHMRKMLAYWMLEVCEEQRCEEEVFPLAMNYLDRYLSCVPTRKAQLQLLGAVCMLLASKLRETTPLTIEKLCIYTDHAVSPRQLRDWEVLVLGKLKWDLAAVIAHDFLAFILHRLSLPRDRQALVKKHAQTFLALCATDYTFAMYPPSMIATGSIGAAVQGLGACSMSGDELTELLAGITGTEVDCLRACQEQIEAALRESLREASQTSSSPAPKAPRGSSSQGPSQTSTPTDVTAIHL

Row | % activity at 100 µM (ALK4(h) (human)) [%] | % activity at 100 µM (CDK6/cyclinD3(h) (human)) [%] | % activity at 100 µM (IRR(h) (human)) [%] | % activity at 100 µM (MAPK2(h) (human)) [%] | % activity at 100 µM (MST1(h) (human)) [%] | % activity at 100 µM (Met(h) (human)) [%] | % activity at 100 µM (NLK(h) (human)) [%] | % activity at 100 µM (PKCβII(h) (human)) [%] | % activity at 100 µM (PTK5(h) (human)) [%] | % activity at 100 µM (PhKγ2(h) (human)) [%] | % activity at 100 µM (Pyk2(h) (human)) [%] | % activity at 100 µM (Rsk3(h) (human)) [%] | % activity at 100 µM (WNK3(h) (human)) [%] | % activity at 100 µM (eEF-2K(h) (human)) [%] | Substance
1 | 130 | 85 | 8 | 93 | 6 | 62 | 90 | 75 | 129 | 38 | 34 | 71 | 74 | 43 | MMI-0400 (peptide)
2 | 81 | 23 | 10 | 60 | 3 | 27 | 19 | 3 | 96 | 16 | 46 | 23 | 9 | 43 | MMI-0500 (peptide)
3 | 140 | 86 | 8 | 98 | 14 | 65 | 87 | 82 | 132 | 46 | 47 | 76 | 77 | 91 | MMI-0300 (peptide)
